Assay results from the supplement of paper PMC10126150.
± gives the standard deviation of the averaged measurements.

Tested on: ATP
Experiment: switch fluorescence ratio, 500 uM ATP over buffer (Cy3 cluster intensity, sum of 5 cycles each) (fold (ratio)); higher = stronger signal-on switching upon ATP binding; sequences stand for … in TCGTCGGCAGCGTCAGATGTGTATAAGAGACAGTTTTTTTTTTTTTTTTTTTTTTTTT…TC
Conditions: aptamer strand: ATP DNA aptamer (quencher-CACCTGGGGGAGTATTGCGGAGGAAGG + anchor), 100 nM annealed; ATP concentration: 500 uM
Method in brief: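 Between each of five buffer/ATP cycles, the flow-cell was stripped with NaOH and re-annealed. Each cycle imaged Cy3-labelled switching-strand clusters, annealed to 100 nM quencher-labelled ATP aptamer on a modified Illumina MiSeq flow-cell, first in selection buffer and then after 15 min with 500 uM ATP at 22 °C. The fluorescence ratio is summed target-cycle over summed buffer-cycle Cy3 intensity per cluster, averaged per switch-domain sequence, with clusters outside 100-1000 RFU excluded.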
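Note: ATP exposure 15 min at 22 °C before imaging.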

Sequence	switch fluorescence ratio
GGATTGGGTG	1.04 ± 0.09
AGCAAGTATC	1.24 ± 0.033
TTCATATTGT	0.955 ± 0.024
ACACAATTTT	1.01 ± 0.026
GTTGATAGTA	0.993 ± 0.031
CGGATGTTAT	0.9626 ± 0.0096
TTAGGCCCTT	1.02 ± 0.011
TTTGGTGCTG	0.983 ± 0.06
TATCTACGGG	1.036 ± 0.0013
ATTCATTATT	0.9927 ± 0.0049
GGGCAGACGT	0.971 ± 0.063
ATGATAATGT	0.985 ± 0.014
GGGTTGGGAG	0.998 ± 0.044
CGGGTTGTGT	1 ± 0.02
GTGGTAAATG	1.01 ± 0.035
TTTGGGGCGT	1 ± 0.035
TTTGGGGTAA	0.991 ± 0.029
AAAAGTTGCG	0.9679 ± 0.0076
CCGGGGGTTC	1.05 ± 0.062
TTGCTAAAGC	1.038 ± 0.0054
TCTGGTTGT	0.992 ± 0.028
AGATGGAGGC	1.0705 ± 0.00017
ATCTTTACCT	1.26 ± 0.036
TAGAAAAGGT	0.974 ± 0.028
CAGGTACATT	1.02 ± 0.049

Sequence	switch fluorescence ratio
TCGAACTGCT	1.02 ± 0.02
CAGCAACGTA	1.05 ± 0.025
GAAGCTTATA	1.251 ± 0.0019
TTTGCCGGGG	1.02 ± 0.06
GGGGGGGCCT	0.999 ± 0.036
TTTGGGCGGG	1.01 ± 0.033
GTTACTAATT	0.9943 ± 0.0081
TTGGAAAAT	0.967 ± 0.013
GCTGCGAATT	1.021 ± 0.01
GATACTGAAC	1.3 ± 0.024
TTTCGTGAAA	0.9975 ± 0.0019
AAGCGGTAGG	1.03 ± 0.015
TCAACTGGAT	0.9502 ± 0.0053
GACTTTTAGG	1.01 ± 0.027
TAGCGGGTTG	1.03 ± 0.036
TCATCAAGGG	0.965 ± 0.012
GAGACGTTTG	1.02 ± 0.054
GACAGTCTCA	1.02 ± 0.021
TTTTATGTGG	1.01 ± 0.04
GAGCTTCTTG	1.017 ± 0.0063
TTAAGACGGT	1.03 ± 0.031
TTCAAGTTGG	0.974 ± 0.024
TTATTAGCTT	0.9916 ± 0.004
ACCTATCCGG	1.03 ± 0.017
CTCAGGGGGG	1.02 ± 0.04

Sequence	switch fluorescence ratio
GGGGGATTTT	0.999 ± 0.027
GGGTATCTAT	1.012 ± 0.0067
TGCGTTATAA	1.02 ± 0.022
GTTGGAAGAG	0.957 ± 0.051
GCGGGGGTTA	0.994 ± 0.018
TGGTGACTAG	0.967 ± 0.024
GGGGGCTGCT	0.962 ± 0.029
TCAACAGTTG	0.998 ± 0.011
TTTTATGGCA	1.02 ± 0.021
TATGGTGCTT	1.01 ± 0.032
CTCGTCACTC	1.232 ± 0.0097
TCTTTTTGTT	0.99 ± 0.018
GAGGGCAATG	1.22 ± 0.067
TTAATTTTA	1.014 ± 0.0011
CTCTTGAATA	0.9957 ± 0.0015
ACTTGGGGTA	0.992 ± 0.04
ATCCTAGTTT	1.016 ± 0.00087
GTAATTTTTT	1.02 ± 0.031
TTTTGGTGGG	0.9972 ± 0.0074
TTTCAAAATT	0.994 ± 0.018
TCTTGTTTGA	1.008 ± 0.0059
GCTCGTACGT	1.01 ± 0.031
TTAGGAGACT	0.991 ± 0.029
CAAGGCTGGG	1.02 ± 0.049
TTAGCCGGAC	1.05 ± 0.013

Sequence	switch fluorescence ratio
TCTGGATAGG	0.9625 ± 0.0058
ATTTTCGGCG	1.001 ± 0.0054
GCTGTGTAGG	0.994 ± 0.013
ACGCGCCTGG	1.05 ± 0.043
GGGGAGTTGG	0.969 ± 0.025
CGAAATCCTT	1.05 ± 0.039
GGGGACCTGG	0.9999 ± 0.0046
AGAAAGTTAA	0.9856 ± 0.0047
TGAGGCCCAG	1.01 ± 0.019
TGTGTATGCT	0.9868 ± 0.0078
TTTGTAAGTT	0.995 ± 0.03
CGTGCGGTGG	1.01 ± 0.043
TAGAGTAACA	1 ± 0.035
GTTGAAGGGG	1.029 ± 0.009
TCTTTGTCGG	0.977 ± 0.029
TTACCTTAGT	1.06 ± 0.034
CAGGACAGCT	1.02 ± 0.02
AAGGGCCGTG	1.02 ± 0.04
TTCTTAGGGA	0.9863 ± 0.0054
TTTTAGGTGG	0.98 ± 0.067
TTGGGATTCT	0.979 ± 0.019
GAGTGTCGCC	0.99 ± 0.021
GTGGGTACCA	0.968 ± 0.017
CTCAGAGAAG	1.02 ± 0.058
CGTCCTTTTT	1.05 ± 0.039
